Test results: paper PMC13398683

Target: Endothelin Receptor Type B (human (endogenous in LGG275 and other patient-derived glioma lines)) (UniProt P24530)
UniProt P24530, sequence (P24530 27-442): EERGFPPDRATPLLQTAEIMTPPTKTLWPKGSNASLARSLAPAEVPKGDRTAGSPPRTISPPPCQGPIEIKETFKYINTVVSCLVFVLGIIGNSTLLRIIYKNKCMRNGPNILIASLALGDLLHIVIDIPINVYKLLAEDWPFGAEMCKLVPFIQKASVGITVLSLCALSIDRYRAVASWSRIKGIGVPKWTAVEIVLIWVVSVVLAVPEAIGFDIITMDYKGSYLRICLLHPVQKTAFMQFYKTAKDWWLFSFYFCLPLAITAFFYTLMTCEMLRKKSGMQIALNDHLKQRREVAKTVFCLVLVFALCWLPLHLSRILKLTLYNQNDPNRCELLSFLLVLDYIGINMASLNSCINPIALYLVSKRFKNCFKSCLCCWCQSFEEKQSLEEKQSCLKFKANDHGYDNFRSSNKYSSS

growth of LGG275 cells, dose-response with ET-3 (4 pM-40 nM): lowest concentration with growth inhibition: 0.4 nM
Binder: CTCFTYKDKECVYYCHLDIIW (ligand) [Endothelin 3]
